# Reference: US20060177448
# Legend:
# [1] = tested on: other HER receptors
# [2] = molecular target: gDHER2(DIV)-IgG (UniProt P04626)
Substance,in vitro cleavage of HER-Fc proteins [1],"in vitro HER2 cleavage (sheddase) assay, stained gel [2]"
"MMP-15 (MT2-MMP), construct not specified at that place",MMP-15 does not clip other HER receptors,
purified catalytic domain of MT2-MMP (MMP-15),,All MT-MMPs except MMP-14 efficiently cleave gDHER2(DIV)-IgG substrate
purified catalytic domain of MT3-MMP (MMP-16),,All MT-MMPs except MMP-14 efficiently cleave gDHER2(DIV)-IgG substrate
purified catalytic domain of MT4-MMP (MMP-19),,All MT-MMPs except MMP-14 efficiently cleave gDHER2(DIV)-IgG substrate
